Legend:
[1] = target: F protein of RSV B-1 (respiratory syncytial virus B-1) (UniProt O36634); assay: cell-based or functional assay
[2] = target: F protein of RSV B-wash (strain 18537) (respiratory syncytial virus B, strain 18537) (UniProt P13843); assay: cell-based or functional assay
[3] = target: F protein of the 58C5 MARM (N63K, M115K, E295G) (Respiratory Syncytial Virus strain A2, escape mutant) (UniProt P03420); assay: cell-based or functional assay
[4] = target: F protein of the Motavizumab MARM (K272E) (Respiratory Syncytial Virus strain A2, escape mutant) (UniProt P03420); assay: cell-based or functional assay
[5] = target: F protein of the parental RSV A2 strain (Example 11) (Respiratory Syncytial Virus strain A2) (UniProt P03420); assay: cell-based or functional assay
[6] = target: native RSV F protein from the RSV A2 strain (Respiratory Syncytial Virus strain A2) (UniProt P03420); assay: cell-based or functional assay
[7] = target: RSV F A2 mutant F351S (human RSV, A2 strain) (UniProt P03420); assay: mutant F in HEK 293 cells
[8] = target: RSV F A2 mutant V278M (human RSV, A2 strain) (UniProt P03420); assay: mutant F in HEK 293 cells
[9] = target: RSV F A2 mutant E463A (human RSV, A2 strain) (UniProt P03420); assay: mutant F in HEK 293 cells
[10] = target: RSV F A2 mutant E82G (human RSV, A2 strain) (UniProt P03420); assay: mutant F in HEK 293 cells
[11] = target: RSV F A2 mutant N371D (human RSV, A2 strain) (UniProt P03420); assay: mutant F in HEK 293 cells
[12] = target: RSV F A2 mutant S403A (human RSV, A2 strain) (UniProt P03420); assay: mutant F in HEK 293 cells
[13] = target: RSV F A2 mutant Y86C (human RSV, A2 strain) (UniProt P03420); assay: mutant F in HEK 293 cells

Which results are given for Fab 58c5?
Average Plaque Count, RSV B-1, Fab at 0.003 µg/ml (12.3 at 0 µg/ml) [1]: 11.7; Average Plaque Count, RSV B-1, Fab at 0.016 µg/ml (12.3 at 0 µg/ml) [1]: 8.7; Average Plaque Count, RSV B-1, Fab at 0.08 µg/ml (12.3 at 0 µg/ml) [1]: 4.7; Average Plaque Count, RSV B-1, Fab at 0.4 µg/ml (12.3 at 0 µg/ml) [1]: 0; Average Plaque Count, RSV B-1, Fab at 2 µg/ml (12.3 at 0 µg/ml) [1]: 0; Average Plaque Count, RSV B-1, Fab at 10 µg/ml (12.3 at 0 µg/ml) [1]: 0.3; ED50, plaque reduction, RSV B-1 [1]: 840 pM; ED50, plaque reduction, RSV B-1 (mass concentration) [1]: 0.042 µg/mL; Average Plaque Count, RSV B/wash, Fab at 0.003 µg/ml (26.3 at 0 µg/ml) [2]: 23.3; Average Plaque Count, RSV B/wash, Fab at 0.016 µg/ml (26.3 at 0 µg/ml) [2]: 16.3; Average Plaque Count, RSV B/wash, Fab at 0.08 µg/ml (26.3 at 0 µg/ml) [2]: 5; Average Plaque Count, RSV B/wash, Fab at 0.4 µg/ml (26.3 at 0 µg/ml) [2]: 0; Average Plaque Count, RSV B/wash, Fab at 2 µg/ml (26.3 at 0 µg/ml) [2]: 0.7; Average Plaque Count, RSV B/wash, Fab at 10 µg/ml (26.3 at 0 µg/ml) [2]: 1.3; ED50, plaque reduction, RSV B/wash [2]: 500 pM; ED50, plaque reduction, RSV B/wash (mass concentration) [2]: 0.025 µg/mL

How did the ED50, plaque reduction, RSV B-1 [1] turn out when IgG form of 58c5 (antibody) was run?
The ED50, plaque reduction, RSV B-1 was 280 pM.

And the ED50, plaque reduction, RSV B/wash [2]?
The ED50, plaque reduction, RSV B/wash was 193 pM.

What about the ED50, plaque reduction, 58C5 MARM [3] of the same substance?
Its ED50, plaque reduction, 58C5 MARM is greater than 66700 pM.

What about the ED50, plaque reduction, Motavizumab MARM [4] of the same substance?
The ED50, plaque reduction, Motavizumab MARM was 173 pM.

What about the ED50, plaque reduction, RSV A2 parental [5] of the same substance?
The ED50, plaque reduction, RSV A2 parental was 115 pM.

And the ED50, plaque reduction, RSV A2 [6]?
Its ED50, plaque reduction, RSV A2 is 133 pM.

What about the immunoluminescence Mean [7] of the same substance?
Its immunoluminescence Mean is 7.4.

What about the immunoluminescence S1 [7] of the same substance?
The immunoluminescence S1 was 2.9.

What about the immunoluminescence S3 [7] of the same substance?
Its immunoluminescence S3 is 6.1.

And the immunoluminescence S4 [7]?
Its immunoluminescence S4 is 14.7.

What about the immunoluminescence Mean [8] of the same substance?
Its immunoluminescence Mean is 99.8.

And the immunoluminescence S1 [8]?
The immunoluminescence S1 was 122.

What about the immunoluminescence S2 [8] of the same substance?
The immunoluminescence S2 was 97.6.

What about the immunoluminescence S3 [8] of the same substance?
Its immunoluminescence S3 is 79.6.

How did the immunoluminescence Mean [9] turn out when Motavizumab IgG (antibody) was run?
Its immunoluminescence Mean is 101.

What about the immunoluminescence Mean [10] of the same substance?
Its immunoluminescence Mean is 42.1.

What about the immunoluminescence Mean [11] of the same substance?
Its immunoluminescence Mean is 26.9.

And the immunoluminescence Mean [12]?
The immunoluminescence Mean was 28.

What about the immunoluminescence Mean [13] of the same substance?
Its immunoluminescence Mean is 24.8.

— patent US20140363427A1
